According to article PMC6092189 (Nature structural & molecular biology, 2018):
Substitutions are numbered along the chain they refer to. Names may count otherwise.

B1: recombinant human β-cardiac myosin subfragment-1 (short S1, sS1, MYH7 residues 1-808) with C-termina (complex)
chain 1: MGDSEMAVFGAAAPYLRKSEKERLEAQTRPFDLKKDVFVPDDKQEFVKAKIVSREGGKVTAETEYGKTVTVKEDQVMQQNPPKFDKIEDMAMLTFLHEPAVLYNLKDRYGSWMIYTYSGLFCVTVNPYKWLPVYTPEVVAAYRGKKRSEAPPHIFSISDNAYQYMLTDRENQSILITGESGAGKTVNTKRVIQYFAVIAAIGDRSKKDQSPGKGTLEDQIIQANPALEAFGNAKTVRNDNSSRFGKFIRIHFGATGKLASADIETYLLEKSRVIFQLKAERDYHIFYQILSNKKPELLDMLLITNNPYDYAFISQGETTVASIDDAEELMATDNAFDVLGFTSEEKNSMYKLTGAIMHFGNMKFKLKQREEQAEPDGTEEADKSAYLMGLNSADLLKGLCHPRVKVGNEYVTKGQNVQQVIYATGALAKAVYERMFNWMVTRINATLETKQPRQYFIGVLDIAGFEIFDFNSFEQLCINFTNEKLQQFFNHHMFVLEQEEYKKEGIEWTFIDFGMDLQACIDLIEKPMGIMSILEEECMFPKATDMTFKAKLFDNHLGKSANFQKPRNIKGKPEAHFSLIHYAGIVDYNIIGWLQKNKDPLNETVVGLYQKSSLKLLSTLFANYAGADAPIEKGKGKAKKGSSFQTVSALHRENLNKLMTNLRSTHPHFVRCIIPNETKSPGVMDNPLVMHQLRCNGVLEGIRICRKGFPNRILYGDFRQRYRILNPAAIPEGQFIDSRKGAEKLLSSLDIDHNQYKFGHTKVFFKAGLLGLLEEMRDERLSRIITRIQAQSRGVLARMEYKKLLERR
chain 2: not shown
B2: human β-cardiac myosin sS1-eGFP (MYH7 1-808) S532P with essential light chain (complex)
chain 1: B1 chain 1 with S532P
chain 2: not shown
B3: human β-cardiac myosin sS1-eGFP (MYH7 1-808) D239N with essential light chain (complex)
chain 1: B1 chain 1 with D239N
chain 2: not shown
B4: human β-cardiac myosin sS1-eGFP (MYH7 1-808) H251N with essential light chain (complex)
chain 1: B1 chain 1 with H251N
chain 2: not shown
B5: human β-cardiac myosin sS1-eGFP (MYH7 1-808) R237W with essential light chain (complex)
chain 1: B1 chain 1 with R237W
chain 2: not shown
B6: human β-cardiac myosin sS1-eGFP (MYH7 1-808) A223T with essential light chain (complex)
chain 1: B1 chain 1 with A223T
chain 2: not shown

The binders below were run against TMR-phalloidin-labelled biotinylated actin filaments (UniProt P68135 1-377, biotin (~1 biotin per monomer)) (assay: optical trap, harmonic force spectroscopy).

k0, detachment rate from actin at zero load | Binder
102 s⁻¹ | B1
80 s⁻¹ | B2
140 s⁻¹ | B3
152 s⁻¹ | B4
155 s⁻¹ | B5
104 s⁻¹ | B6
